For one molecule, IC50 and relative IC50 (IC50mut/IC50 G1S-A70V) results are on record in patent publication EP1506972A1 (Genentech Inc., dated 2005).

The assay addresses IGF-I D20A (G1S-A70V background) displayed on phage (human; bacteriophage M13). Put plainly: competitive phage ELISA, soluble IGFBP-1 vs coated IGFBP-1. For orientation: ELISA stands for enzyme-linked immunosorbent assay.

B1: human IGFBP-1 (other, UniProt P08833 26-259, looked up)
chain: APWQCAPCSAEKLALCPPVSASCSEVTRSAGCGCCPMCALPLGAACGVATARCARGLSCRALPGEQQPLHALTRGQGACVQESDASAPHAAEAGSPESPESTEITEEELLDNFHLMAPSEEDHSILWDAISTYDGSKALHVTNIKKWKEPCRIELYRVVESLAKAQETSGEEISKFYLPNCNKNGFYHSRQCETSMDGEAGLCWCVYPWNGKRIPGSPEIRGDPNCQIYFNVQN
notes: Secreted recombinant protein
Broadly, the IC50 is the point on the concentration scale where inhibition reaches its midpoint. For the molecule B1, the IC50 came out at 8.4 nM and the relative IC50 (IC50mut/IC50 G1S-A70V) is 1 fold.
